Target: retinoblastoma protein (RB1) (human) (UniProt P06400)
Experiment: cell-based or functional assay

Chain of retinoblastoma protein (RB1) (human) (P06400 2-928 limits assumed): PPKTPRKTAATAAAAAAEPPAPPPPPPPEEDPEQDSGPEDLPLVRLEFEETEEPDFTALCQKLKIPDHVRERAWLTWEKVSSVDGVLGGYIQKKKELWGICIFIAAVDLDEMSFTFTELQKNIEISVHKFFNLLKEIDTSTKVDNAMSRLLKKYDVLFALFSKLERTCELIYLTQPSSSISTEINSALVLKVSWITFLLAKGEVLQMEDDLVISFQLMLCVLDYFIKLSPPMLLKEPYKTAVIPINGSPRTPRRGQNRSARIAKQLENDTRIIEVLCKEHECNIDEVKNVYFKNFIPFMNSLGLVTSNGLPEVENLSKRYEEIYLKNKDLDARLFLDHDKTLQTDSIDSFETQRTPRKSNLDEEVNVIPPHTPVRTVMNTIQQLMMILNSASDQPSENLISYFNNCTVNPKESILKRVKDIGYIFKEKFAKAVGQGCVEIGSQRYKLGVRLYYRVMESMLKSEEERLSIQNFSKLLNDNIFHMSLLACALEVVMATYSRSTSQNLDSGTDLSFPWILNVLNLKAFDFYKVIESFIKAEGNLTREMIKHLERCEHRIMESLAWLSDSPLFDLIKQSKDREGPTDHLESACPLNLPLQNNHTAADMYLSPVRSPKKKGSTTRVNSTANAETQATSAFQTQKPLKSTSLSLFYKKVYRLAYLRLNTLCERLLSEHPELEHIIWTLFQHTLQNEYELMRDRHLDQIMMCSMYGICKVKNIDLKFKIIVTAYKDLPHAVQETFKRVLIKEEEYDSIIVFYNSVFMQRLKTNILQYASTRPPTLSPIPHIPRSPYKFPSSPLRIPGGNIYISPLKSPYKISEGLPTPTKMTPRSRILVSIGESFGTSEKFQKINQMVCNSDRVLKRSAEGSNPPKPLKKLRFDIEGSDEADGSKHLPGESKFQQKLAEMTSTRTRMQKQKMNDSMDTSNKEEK

Question: With “Truncated tumor-derived Merkel cell polyomavirus large T antigen LT339 (MCV339 strain, amino acid 1-455)” as the substance, how does the survivin protein level in BJ fibroblasts (ECL and quantitative LICOR immunoblotting) read?
Answer: 3 fold
